Measurements reported in PMC6522849.

System: T1, BsrR (Enterococcus faecium NW2), ORF:b1c0129b
T1 sequence: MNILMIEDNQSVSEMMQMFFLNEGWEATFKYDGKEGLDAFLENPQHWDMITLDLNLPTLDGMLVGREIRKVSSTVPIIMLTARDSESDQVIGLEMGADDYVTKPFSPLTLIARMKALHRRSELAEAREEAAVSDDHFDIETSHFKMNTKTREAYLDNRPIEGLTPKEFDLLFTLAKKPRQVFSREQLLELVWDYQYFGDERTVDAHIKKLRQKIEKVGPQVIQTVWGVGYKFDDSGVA
Test: EMSA

AAATAAAACTCCTTTTTTATTGGAATAAGTTTATCTTAACAAAGAATGAACAAAAGACAAACCTTTCGTGAAGAATTCCTGAACATATTGGTTCAGTCAACAATTTAGAGTATACTATAAGAAGAGAATTTAGGAGGGAAAGA (double strand) [bsrX upstream intergenic region, 143 bp]
binding: binds
